Molecular target: the molecule itself
Experiment: native gel or EMSA

B1: Human butyrylcholinesterase (enzyme, UniProt P06276 29-602, looked up)
chain: EDDIIIATKNGKVRGMNLTVFGGTVTAFLGIPYAQPPLGRLRFKKPQSLTKWSDIWNATKYANSCCQNIDQSFPGFHGSEMWNPNTDLSEDCLYLNVWIPAPKPKNATVLIWIYGGGFQTGTSSLHVYDGKFLARVERVIVVSMNYRVGALGFLALPGNPEAPGNMGLFDQQLALQWVQKNIAAFGGNPKSVTLFGESAGAASVSLHLLSPGSHSLFTRAILQSGSFNAPWAVTSLYEARNRTLNLAKLTGCSRENETEIIKCLRNKDPQEILLNEAFVVPYGTPLSVNFGPTVDGDFLTDMPDILLELGQFKKTQILVGVNKDEGTAFLVYGAPGFSKDNNSIITRKEFQEGLKIFFPGVSEFGKESILFHYTDWVDDQRPENYREALGDVVGDYNFICPALEFTKKFSEWGNNAFFYYFEHRSSKLPWPEWMGVMHGYEIEFVFGLPLERRDNYTKAEEILSRSIVKRWANFAKYGNPNETQNNSTSWPVFKSTEQKYLTLNTESTRIMTKLRAQQCRFWTSFFPKVLEMTGNIDEAEWEWKAGFHRWNNYMMDWKNQFNDYTSKKESCVGL
notes: also called BChE; C4 (tetramer)
  stoichiometry N: 4
